Data: patent US20260234223A1

Target: SARS-CoV-2 Delta Spike antigen (SARS-CoV-2 Delta)

Anti-S1 antibody DZIF-10c was tested, and the EC50 was 6.9 nM.

Substance Anti-S1 mAb ImdevimAb (antibody) has an EC50 of 0.01 nM.
